Experimental data from PMC12644734.

Target: T1, SARS-CoV M protein (SARS-CoV), P59596
T1 chain: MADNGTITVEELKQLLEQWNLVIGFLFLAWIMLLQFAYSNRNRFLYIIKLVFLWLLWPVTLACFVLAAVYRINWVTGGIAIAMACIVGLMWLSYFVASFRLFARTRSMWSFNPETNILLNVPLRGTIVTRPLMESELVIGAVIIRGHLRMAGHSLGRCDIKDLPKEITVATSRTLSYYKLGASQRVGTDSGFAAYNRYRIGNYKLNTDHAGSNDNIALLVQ
Assay: cryo-EM structure
Conditions: remark: other sources report otherwise

B1: SARS-CoV M protein, P59596 1-221 (natural protein)
chain: T1 chain
B1 showed a stoichiometry N of 2.
